Results taken from patent publication US20200040059A1.

What was measured:
[1] = molecular target: PD-1 (Homo sapiens (Human)) (UniProt Q15116); test: flow cytometry, cells expressing PD-1; vs WT PD-L1 (IgV + IgC) Fc
[2] = molecular target: PD-1 (Homo sapiens (Human)) (UniProt Q15116); test: flow cytometry, cells expressing PD-1
[3] = molecular target: CD80 (Homo sapiens (Human)) (UniProt P33681); test: flow cytometry, cells expressing CD80
CD28 (human) = CD28 (human) (UniProt P10747); test: flow cytometry, transfected cells
PD-L1 (human) = PD-L1 (human) (UniProt Q9NZQ7); test: flow cytometry, transfected cells
PD-L1 (human), sequence (Q9NZQ7 19-290 limits assumed): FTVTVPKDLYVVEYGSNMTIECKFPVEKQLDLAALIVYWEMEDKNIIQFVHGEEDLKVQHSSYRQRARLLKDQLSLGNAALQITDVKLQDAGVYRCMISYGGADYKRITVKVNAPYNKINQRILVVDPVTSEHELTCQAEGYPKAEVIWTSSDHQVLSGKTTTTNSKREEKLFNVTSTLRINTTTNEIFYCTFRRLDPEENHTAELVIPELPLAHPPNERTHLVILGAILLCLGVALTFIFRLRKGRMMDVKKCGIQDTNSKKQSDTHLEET

[4] = molecular target: PD-1 (Homo sapiens (Human)) (UniProt Q15116); test: flow cytometry, Jurkat/PD-1 cells
PD-1-Fc = test: Fortebio (BLI), PD-1-Fc
[5] = molecular target: PD-1 (Homo sapiens (Human)) (UniProt Q15116); test: flow cytometry, Jurkat/PD-1 cells; vs wildtype PD-L2 IgV-Fc
human B7-H6 (human) [6] = molecular target: human B7-H6 (human) (UniProt Q68D85); test: flow cytometry, transfected cells
human B7-H6 (human), sequence (Q68D85 25-454): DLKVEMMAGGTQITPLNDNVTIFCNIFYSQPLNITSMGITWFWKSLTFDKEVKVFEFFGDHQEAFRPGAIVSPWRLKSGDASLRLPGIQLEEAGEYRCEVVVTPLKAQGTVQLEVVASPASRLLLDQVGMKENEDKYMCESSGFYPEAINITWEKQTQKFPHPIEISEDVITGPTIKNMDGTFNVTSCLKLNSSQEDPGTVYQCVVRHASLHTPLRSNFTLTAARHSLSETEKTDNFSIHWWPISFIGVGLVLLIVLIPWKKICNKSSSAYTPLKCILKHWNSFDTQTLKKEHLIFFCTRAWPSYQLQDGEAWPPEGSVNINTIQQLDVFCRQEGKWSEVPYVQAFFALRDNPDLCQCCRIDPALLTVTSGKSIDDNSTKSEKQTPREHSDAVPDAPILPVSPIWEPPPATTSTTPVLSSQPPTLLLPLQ

human B7-H6 (human) [7] = molecular target: human B7-H6 (human) (UniProt Q68D85); test: flow cytometry; MFI vs m14
CD96 [8] = molecular target: T1, CD96 (UniProt P40200); test: flow cytometry on CD96-expressing cells
T1 sequence (looked up): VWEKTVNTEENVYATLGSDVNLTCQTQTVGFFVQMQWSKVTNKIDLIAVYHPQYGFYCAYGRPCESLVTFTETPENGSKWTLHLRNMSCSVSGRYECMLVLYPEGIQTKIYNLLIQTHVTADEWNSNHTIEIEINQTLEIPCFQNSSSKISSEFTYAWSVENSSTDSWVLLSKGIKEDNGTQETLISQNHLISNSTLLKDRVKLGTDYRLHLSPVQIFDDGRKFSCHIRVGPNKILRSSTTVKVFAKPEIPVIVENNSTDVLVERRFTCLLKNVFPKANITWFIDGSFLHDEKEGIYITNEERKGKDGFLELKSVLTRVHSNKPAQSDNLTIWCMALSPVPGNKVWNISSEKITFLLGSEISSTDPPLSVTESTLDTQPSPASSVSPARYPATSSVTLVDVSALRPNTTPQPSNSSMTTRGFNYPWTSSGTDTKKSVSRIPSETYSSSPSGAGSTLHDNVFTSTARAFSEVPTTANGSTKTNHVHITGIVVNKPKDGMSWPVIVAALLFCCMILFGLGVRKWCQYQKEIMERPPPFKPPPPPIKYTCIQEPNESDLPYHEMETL

TIGIT (human) [9] = molecular target: T2, TIGIT (human) (UniProt Q495A1); test: flow cytometry on TIGIT-expressing cells
T2 sequence: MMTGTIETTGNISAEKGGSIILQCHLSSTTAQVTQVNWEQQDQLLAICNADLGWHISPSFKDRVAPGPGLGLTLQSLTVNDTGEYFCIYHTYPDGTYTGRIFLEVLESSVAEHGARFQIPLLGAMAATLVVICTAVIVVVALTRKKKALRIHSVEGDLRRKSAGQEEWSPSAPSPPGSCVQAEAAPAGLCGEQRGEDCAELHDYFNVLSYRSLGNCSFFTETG

TIGIT (human) [10] = molecular target: T2, TIGIT (human); test: flow cytometry, TIGIT-expressing cells
CD226 (human) [11] = molecular target: T3, CD226 (human) (UniProt Q15762); test: flow cytometry, CD226-expressing cells
T3 sequence: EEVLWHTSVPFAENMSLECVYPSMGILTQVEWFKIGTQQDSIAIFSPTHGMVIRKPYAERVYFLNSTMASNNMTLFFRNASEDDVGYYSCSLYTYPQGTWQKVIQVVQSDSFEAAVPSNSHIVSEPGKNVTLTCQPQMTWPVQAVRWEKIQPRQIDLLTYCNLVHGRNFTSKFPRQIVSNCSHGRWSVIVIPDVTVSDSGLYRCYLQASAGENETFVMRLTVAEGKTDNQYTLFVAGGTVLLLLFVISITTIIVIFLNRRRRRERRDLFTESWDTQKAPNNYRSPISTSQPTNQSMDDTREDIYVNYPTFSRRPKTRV

CD96 [12] = molecular target: T1, CD96; test: flow cytometry, CD96-expressing cells
[13] = molecular target: T4, CD96 (expressed on cells) (UniProt P40200); test: flow cytometry on cells expressing the target, 20 nM
T4 sequence (looked up): T1 sequence (looked up)

[14] = molecular target: CD112R (full length, expressed on transfected cells) (human) (UniProt Q6DKI7); test: as above
CD112R (full length, expressed on transfected cells) (human), sequence (Q6DKI7 whole entry): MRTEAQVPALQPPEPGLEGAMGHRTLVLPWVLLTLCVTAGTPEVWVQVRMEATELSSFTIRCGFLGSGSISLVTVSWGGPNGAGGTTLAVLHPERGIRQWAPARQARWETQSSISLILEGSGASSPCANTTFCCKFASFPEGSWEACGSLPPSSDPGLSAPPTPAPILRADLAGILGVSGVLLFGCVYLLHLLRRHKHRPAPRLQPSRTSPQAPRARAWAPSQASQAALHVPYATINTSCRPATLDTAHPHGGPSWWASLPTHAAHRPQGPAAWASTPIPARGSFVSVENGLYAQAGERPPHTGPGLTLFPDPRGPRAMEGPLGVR

[15] = molecular target: human B7-H6, full-length, expressed on transfected Expi293 cells (human) (UniProt Q68D85); test: flow cytometry on B7-H6-expressing Expi293 cells
human B7-H6, full-length, expressed on transfected Expi293 cells (human), sequence (Q68D85 25-454): as the sequence (Q68D85 25-454) above

[16] = molecular target: human CD28, full-length, expressed on transfected Expi293 cells (human) (UniProt P10747); test: flow cytometry on CD28-expressing Expi293 cells
CD112R (human) = CD112R (human) (UniProt Q6DKI7); test: flow cytometry on CD112R-expressing cells
CD112R (human), sequence (Q6DKI7 whole entry): as the sequence (Q6DKI7 whole entry) above

TIGIT (human) [17] = molecular target: T2, TIGIT (human); test: flow cytometry, transfected cells
CD96 [18] = molecular target: T1, CD96; test: flow cytometry, cells
[19] = molecular target: human CD112R, full length, expressed on transfected Expi293 cells (human) (UniProt Q6DKI7); test: flow cytometry, Expi293 cells transfected with full-length human CD112R
human CD112R, full length, expressed on transfected Expi293 cells (human), sequence (Q6DKI7 whole entry): as above

CD226 (human) [20] = molecular target: T3, CD226 (human); test: flow cytometry on CD226-expressing cells
[21] = molecular target: human ICOS as used for the 'ICOS OD' read-out of Table 14 (human); test: binding read as OD; format not described

PD-1 (Homo sapiens (Human)), sequence (Q15116 21-288 limits assumed, form in doubt): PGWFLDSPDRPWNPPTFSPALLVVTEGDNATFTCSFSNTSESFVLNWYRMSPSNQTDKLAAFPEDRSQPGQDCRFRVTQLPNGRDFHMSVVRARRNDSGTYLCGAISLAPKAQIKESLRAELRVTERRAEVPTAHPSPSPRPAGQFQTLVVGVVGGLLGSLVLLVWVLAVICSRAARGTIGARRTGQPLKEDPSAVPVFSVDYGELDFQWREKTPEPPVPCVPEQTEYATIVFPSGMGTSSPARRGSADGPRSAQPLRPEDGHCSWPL
Wildtype CD112-IgV Fc, sequence (Q92692 32-156 limits assumed): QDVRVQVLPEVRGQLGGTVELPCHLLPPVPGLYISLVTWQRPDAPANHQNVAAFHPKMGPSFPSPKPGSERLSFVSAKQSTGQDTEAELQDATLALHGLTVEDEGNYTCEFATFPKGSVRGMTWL
WT CD112 IgV Fc fusion, sequence (Q92692 32-156 limits assumed): as above
Domain 1: CD80 WT / Domain 2: CD86 WT / Fc (Fc fusion), sequence (chain): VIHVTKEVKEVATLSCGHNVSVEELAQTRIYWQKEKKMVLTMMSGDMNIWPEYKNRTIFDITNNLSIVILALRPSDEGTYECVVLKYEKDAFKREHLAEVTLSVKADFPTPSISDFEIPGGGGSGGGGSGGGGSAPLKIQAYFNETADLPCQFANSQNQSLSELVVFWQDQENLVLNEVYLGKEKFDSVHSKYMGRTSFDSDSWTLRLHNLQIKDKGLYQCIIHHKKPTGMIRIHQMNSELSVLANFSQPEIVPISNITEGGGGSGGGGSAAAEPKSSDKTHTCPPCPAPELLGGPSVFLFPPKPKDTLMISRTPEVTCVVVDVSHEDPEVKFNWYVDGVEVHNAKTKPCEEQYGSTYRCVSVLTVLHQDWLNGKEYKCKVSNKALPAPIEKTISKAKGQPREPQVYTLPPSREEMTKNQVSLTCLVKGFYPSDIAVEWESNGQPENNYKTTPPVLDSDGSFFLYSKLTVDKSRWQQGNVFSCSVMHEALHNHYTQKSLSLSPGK
CD80 (Homo sapiens (Human)), sequence (P33681 35-288 limits assumed, form in doubt): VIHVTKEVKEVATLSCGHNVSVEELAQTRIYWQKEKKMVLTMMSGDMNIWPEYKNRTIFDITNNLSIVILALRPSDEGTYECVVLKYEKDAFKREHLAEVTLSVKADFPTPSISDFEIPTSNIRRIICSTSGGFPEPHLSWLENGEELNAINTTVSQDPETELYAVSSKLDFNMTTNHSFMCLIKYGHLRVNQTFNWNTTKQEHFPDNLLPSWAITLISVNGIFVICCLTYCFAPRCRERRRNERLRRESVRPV

With “variant PD-L1 ECD-Fc I36T, I46V, D55G, M97L, K106E, K144E, T185A, R195G (Fc fusion)” the Fold Change Compared to WT PD-L1 [1] was 0 fold, the MFI at 20 nM [2] was 69 and the MFI at 20 nM [3] was 190.

“Domain 1: CD80 WT / Domain 2: CD86 WT / Fc (Fc fusion)” showed an MFI (CD28 (human)) of 60300 and an MFI (PD-L1 (human)) of 2080.

“variant PD-L2 IgV-Fc H15Q, R76G, I85F (SEQ ID NO 1505) (Fc fusion)” was tested, and the MFI at 50 nM [4] was 1890, the Fortebio binding to PD-1-Fc Response Units (Response Units) (PD-1-Fc) was -0.006 and the Fold increase over wildtype PD-L2 IgV-Fc [5] was 0.19 fold.

“Domain 1: CD80 WT / Domain 2: Nkp30 WT / Fc (Fc fusion)” was tested, and the MFI (CD28 (human)) was 13700, the MFI (human B7-H6 (human) [6]) was 110000 and the WT parental MFI ratio (human B7-H6 (human) [7]) was 1.

For “CD112 variant R12W, A46T, K66M, Q79R, N106I, T113A, S118F IgV-Fc (from UniProt Q92692 32-156) (Fc fusion)”, the MFI at 100 nM (CD96 [8]) was 4060 MFI.

Substance “CD112 variant G82S, S118Y IgV-Fc (from UniProt Q92692 32-156) (Fc fusion)” has an MFI 100 nM (TIGIT (human) [9]) of 4270 MFI.

“CD155 variant IgV-Fc P18S, V41A, S42G, T45G, L104N (from UniProt P15151 24-139) (Fc fusion)” was tested, and the MFI at 100 nM (TIGIT (human) [10]) was 3820 MFI, the MFI at 100 nM (CD226 (human) [11]) was 11400 MFI and the MFI at 100 nM (CD96 [12]) was 3090 MFI.

“WT CD112 IgV Fc fusion (from UniProt Q92692 32-156)” showed an MFI at 20 nM [13] of 2500 and an MFI at 20 nM [14] of 1660.

“stacked Fc fusion, Domain 1: NKp30 WT / Domain 2: ICOSL WT” showed an MFI [15] of 64500 MFI and an MFI [16] of 6340 MFI.

Work on “Domain 1: CD86 WT / Domain 2: Nkp30 WT / Fc (Fc fusion)” yielded an MFI (human B7-H6 (human) [6]) of 129000.

In the case of “Wildtype CD112-IgV Fc (from UniProt Q92692 32-156) (Fc fusion)”, the MFI at 100 nM (CD96 [8]) is reported as 8540 MFI and the MFI at 100 nM (CD112R (human)) is reported as 4840 MFI.

“CD155 variant IgV-Fc L79P, L104M (from UniProt P15151 24-139) (Fc fusion)” gave an MFI at 100 nM (TIGIT (human) [10]) of 3210 MFI, an MFI at 100 nM (CD226 (human) [11]) of 8320 MFI and an MFI at 100 nM (CD96 [12]) of 2890 MFI.

With “CD155 variant IgV-Fc A13R, D23Y, E37P, S42P, Q62Y, A81E (from UniProt P15151 24-139) (Fc fusion)” the MFI at 100 nM (TIGIT (human) [10]) was 4160 MFI, the MFI at 100 nM (CD226 (human) [11]) was 11700 MFI and the MFI at 100 nM (CD96 [12]) was 5760 MFI.

For “CD155 P18S, F91P IgV-Fc (from UniProt P15151 24-139) (Fc fusion)”, the MFI (TIGIT (human) [17]) was 3220 and the MFI (CD96 [18]) was 2680.

In the case of “CD112 variant S118Y IgV-Fc fusion (from UniProt Q92692 32-156)”, the MFI [19] is reported as 6540 MFI.

“CD112 variant Y33H, S118T IgV-Fc (from UniProt Q92692 32-156) (Fc fusion)” was tested, and the MFI at 100 nM (CD96 [8]) was 5000 MFI and the MFI at 100 nM (CD226 (human) [20]) was 17700 MFI.

For ICOSL variant N52S/Y152H ECD-Fc fusion, the ICOS OD [21] was 0.85 OD, the ICOS OD parental ratio (ratio to WT ICOSL ECD-Fc) [21] was 0.99 and the MFI [16] was 68 MFI. The MFI parental ratio (ratio to WT ICOSL ECD-Fc) [16] was 3.78.

Work on “variant PD-L2 IgV-Fc I13V, H15Q, T37A, E44D, S48C, S67L, Q82R, V89D (Fc fusion)” yielded an MFI at 50 nM [4] of 47600 and a Fortebio binding to PD-1-Fc Response Units (Response Units) (PD-1-Fc) of 1.25.

“CD112 IgV R12W, Y33H, N47K, Q79R, S118Y Fc fusion (from UniProt Q92692 32-156)” showed an MFI at 20 nM [13] of 2640 and an MFI at 20 nM [14] of 1120.
